Biological target: light-harvesting 1 - reaction center complex (LH1-RC) of Thermochromatium tepidum (Thermochromatium tepidum, UniProt D2Z0P5 23-404; D2Z0P3 1-281; A8ASG6 1-325; D2Z0P9 1-259; D2Z0P2 1-61; D2Z0P1 …)
Assay: crystal structure; co-crystal by micro-batch under oil; HiPIP:LH1-RC mixed 15:1, LH1-RC 0.0694 mM; 30 mM sodium succinate pH 5, 20 mM CaCl2, 3.4% OPC, 30% PEG 1500; 20 °C; 2.9 Å
Conditions: both partners purified

stoichiometry N: 1 HiPIP per LH1-RC
B1: high-potential iron-sulfur protein (HiPIP) of Thermochromatium tepidum (natural protein, UniProt P80176 1-83, looked up)
chain: AAPANAVTADDPTAIALKYNQDATKSERVAAARPGLPPEEQHCANCQFMQANVGEGDWKGCQLFPGKLINVNGWCASWTLKAG
notes: High-potential iron-sulfur protein (HiPIP), Thermochromatium tepidum strain MC, native protein with its 4Fe-4S cluster, purified in the reduced state; Carries a 4Fe-4S cluster; also called Tch. tepidum HiPIP; source: purified from Tch. tepidum strain MC (soluble fraction of sonicated cells, DEAE column)
